B1: 14-3-3 protein sigma (Homo sapiens), P31947 (parent)
chain: MERASLIQKAKLAEQAERYEDMAAFMKGAVEKGEELSCEERNLLSVAYKNVVGGQRAAWRVLSSIEQKSNEEGSEEKGPEVREYREKVETELQGVCDTVLGLLDSHLIKEAGDAESRVFYLKMKGDYYRYLAEVATGDDKKRIIDSARSAYQEAMDISKKEMPPTNPIRLGLALNFSVFHYEIANSPEEAISLAKTTFDEAMADLHTLSEDSYKDSTLIMQLLRDNLTLWTADNAGEEGGEAPQEPQS
partner: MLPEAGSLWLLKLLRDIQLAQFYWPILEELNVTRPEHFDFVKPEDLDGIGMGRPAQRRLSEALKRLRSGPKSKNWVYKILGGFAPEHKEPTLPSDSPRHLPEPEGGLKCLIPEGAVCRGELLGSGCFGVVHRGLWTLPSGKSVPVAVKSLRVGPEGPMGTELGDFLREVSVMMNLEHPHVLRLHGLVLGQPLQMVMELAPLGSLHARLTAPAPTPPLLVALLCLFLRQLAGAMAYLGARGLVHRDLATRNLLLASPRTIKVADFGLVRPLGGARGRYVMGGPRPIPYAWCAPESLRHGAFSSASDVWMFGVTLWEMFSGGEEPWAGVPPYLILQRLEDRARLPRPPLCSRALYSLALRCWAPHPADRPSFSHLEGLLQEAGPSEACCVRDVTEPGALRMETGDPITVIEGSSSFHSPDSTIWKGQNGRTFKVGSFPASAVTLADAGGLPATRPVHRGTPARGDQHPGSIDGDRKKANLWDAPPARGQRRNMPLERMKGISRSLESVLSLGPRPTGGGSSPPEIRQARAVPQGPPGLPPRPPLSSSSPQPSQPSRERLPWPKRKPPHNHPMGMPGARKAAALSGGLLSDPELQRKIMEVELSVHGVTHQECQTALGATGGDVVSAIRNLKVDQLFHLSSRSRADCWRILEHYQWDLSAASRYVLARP
B2: 14-3-3 protein sigma (Homo sapiens), P31947 (parent)
chain: B1 chain
partner: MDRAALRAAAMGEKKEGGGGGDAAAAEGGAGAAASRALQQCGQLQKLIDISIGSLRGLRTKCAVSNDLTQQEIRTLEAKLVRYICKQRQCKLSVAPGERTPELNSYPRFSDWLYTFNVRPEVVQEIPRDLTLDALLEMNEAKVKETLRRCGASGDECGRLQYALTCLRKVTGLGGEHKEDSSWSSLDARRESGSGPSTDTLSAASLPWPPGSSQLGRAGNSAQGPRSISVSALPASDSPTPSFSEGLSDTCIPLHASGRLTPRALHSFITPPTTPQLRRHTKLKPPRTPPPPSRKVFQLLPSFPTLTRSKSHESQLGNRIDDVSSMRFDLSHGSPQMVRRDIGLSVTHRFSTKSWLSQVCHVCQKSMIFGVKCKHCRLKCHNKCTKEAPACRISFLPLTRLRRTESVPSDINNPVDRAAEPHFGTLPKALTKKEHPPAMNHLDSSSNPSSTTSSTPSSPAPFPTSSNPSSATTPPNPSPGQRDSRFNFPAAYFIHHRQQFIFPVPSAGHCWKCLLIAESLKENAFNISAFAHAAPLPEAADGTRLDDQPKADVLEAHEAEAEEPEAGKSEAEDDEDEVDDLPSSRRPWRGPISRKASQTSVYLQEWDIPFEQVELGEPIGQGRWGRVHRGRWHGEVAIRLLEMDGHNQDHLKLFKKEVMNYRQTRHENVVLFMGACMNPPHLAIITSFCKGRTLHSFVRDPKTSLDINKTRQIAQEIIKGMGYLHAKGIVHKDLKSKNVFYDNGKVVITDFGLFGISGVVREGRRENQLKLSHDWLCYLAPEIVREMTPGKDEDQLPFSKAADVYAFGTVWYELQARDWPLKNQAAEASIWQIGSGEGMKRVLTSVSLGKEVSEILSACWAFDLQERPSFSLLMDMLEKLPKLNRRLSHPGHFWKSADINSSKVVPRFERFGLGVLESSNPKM
B3: 14-3-3 protein sigma (Homo sapiens), P31947 (parent)
chain: B1 chain
partner: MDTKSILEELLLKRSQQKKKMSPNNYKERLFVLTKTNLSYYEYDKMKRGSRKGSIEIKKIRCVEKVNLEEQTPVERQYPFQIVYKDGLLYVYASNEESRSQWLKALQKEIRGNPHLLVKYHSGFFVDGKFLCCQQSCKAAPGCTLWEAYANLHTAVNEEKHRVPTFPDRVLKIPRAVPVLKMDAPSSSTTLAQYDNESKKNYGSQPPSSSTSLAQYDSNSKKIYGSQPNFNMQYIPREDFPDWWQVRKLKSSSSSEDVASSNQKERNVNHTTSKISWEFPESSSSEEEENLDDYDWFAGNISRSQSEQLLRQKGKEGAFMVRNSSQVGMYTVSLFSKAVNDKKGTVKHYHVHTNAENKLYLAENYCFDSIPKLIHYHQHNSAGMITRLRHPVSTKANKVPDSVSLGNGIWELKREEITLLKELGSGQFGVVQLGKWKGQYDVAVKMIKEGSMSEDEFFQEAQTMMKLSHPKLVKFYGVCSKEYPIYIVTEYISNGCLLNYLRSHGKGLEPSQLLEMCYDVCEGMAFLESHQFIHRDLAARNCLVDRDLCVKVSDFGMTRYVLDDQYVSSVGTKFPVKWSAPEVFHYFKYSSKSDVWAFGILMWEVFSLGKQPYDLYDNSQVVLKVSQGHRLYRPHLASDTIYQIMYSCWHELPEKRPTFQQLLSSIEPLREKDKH
B4: 14-3-3 protein sigma (Homo sapiens), P31947 (parent)
chain: B1 chain
partner: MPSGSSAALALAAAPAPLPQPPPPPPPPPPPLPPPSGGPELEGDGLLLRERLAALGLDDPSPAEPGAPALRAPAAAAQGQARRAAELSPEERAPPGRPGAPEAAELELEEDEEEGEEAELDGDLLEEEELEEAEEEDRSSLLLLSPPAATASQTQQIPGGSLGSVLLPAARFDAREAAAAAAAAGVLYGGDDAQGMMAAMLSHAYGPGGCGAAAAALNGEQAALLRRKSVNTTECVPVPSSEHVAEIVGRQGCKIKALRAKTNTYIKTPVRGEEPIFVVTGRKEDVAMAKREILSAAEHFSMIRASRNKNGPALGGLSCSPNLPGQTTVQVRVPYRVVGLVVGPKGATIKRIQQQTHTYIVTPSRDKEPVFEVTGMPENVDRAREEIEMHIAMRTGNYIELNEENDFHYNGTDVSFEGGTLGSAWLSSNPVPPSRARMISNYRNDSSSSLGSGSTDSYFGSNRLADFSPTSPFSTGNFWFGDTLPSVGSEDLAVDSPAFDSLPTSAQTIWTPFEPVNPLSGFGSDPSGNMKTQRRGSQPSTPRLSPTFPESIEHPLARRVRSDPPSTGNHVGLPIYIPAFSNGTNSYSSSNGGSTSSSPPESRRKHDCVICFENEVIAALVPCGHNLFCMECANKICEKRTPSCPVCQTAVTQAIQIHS
B5: 14-3-3 protein sigma (Homo sapiens), P31947 (parent)
chain: B1 chain
partner: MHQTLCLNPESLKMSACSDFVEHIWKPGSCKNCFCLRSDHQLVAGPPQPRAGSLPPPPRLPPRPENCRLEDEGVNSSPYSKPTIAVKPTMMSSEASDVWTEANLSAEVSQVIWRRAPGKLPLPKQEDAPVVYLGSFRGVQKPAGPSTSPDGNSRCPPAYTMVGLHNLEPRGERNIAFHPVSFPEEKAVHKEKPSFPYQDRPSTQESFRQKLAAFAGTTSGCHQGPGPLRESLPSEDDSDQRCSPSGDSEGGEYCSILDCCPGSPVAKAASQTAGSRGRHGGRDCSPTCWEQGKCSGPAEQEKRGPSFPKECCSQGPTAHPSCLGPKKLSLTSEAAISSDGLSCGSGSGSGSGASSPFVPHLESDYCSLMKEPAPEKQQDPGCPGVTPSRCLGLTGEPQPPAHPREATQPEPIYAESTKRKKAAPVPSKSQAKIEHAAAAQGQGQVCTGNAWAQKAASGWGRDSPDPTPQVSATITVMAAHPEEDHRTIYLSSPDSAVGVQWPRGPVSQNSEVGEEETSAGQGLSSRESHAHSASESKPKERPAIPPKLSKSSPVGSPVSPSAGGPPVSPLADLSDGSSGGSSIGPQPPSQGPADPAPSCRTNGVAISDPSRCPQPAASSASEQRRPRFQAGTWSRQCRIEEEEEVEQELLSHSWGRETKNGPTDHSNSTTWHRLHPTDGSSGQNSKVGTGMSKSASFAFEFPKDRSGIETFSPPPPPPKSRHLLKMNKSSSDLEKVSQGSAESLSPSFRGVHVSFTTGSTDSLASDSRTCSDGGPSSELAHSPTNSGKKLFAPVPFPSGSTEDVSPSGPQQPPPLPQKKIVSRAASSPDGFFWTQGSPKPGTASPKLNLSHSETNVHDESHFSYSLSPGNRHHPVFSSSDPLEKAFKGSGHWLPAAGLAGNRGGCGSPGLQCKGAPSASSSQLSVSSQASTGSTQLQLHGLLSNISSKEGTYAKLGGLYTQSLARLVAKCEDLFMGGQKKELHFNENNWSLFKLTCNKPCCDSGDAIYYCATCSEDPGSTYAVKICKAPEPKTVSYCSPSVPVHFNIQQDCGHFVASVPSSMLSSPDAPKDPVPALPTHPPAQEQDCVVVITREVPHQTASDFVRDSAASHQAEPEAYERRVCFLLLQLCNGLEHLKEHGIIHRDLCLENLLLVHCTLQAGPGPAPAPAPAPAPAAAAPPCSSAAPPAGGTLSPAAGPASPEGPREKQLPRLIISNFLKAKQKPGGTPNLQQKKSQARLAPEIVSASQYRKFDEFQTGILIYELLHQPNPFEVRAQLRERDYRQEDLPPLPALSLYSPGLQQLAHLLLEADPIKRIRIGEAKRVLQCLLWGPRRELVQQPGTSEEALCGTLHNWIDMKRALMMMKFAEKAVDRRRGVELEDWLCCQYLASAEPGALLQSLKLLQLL

Variants of: B1
Settings: with tnk1_human TNK1, Q13470

effect of a mutation on the interaction	Variant
decreasing interaction strength	K49E;R56E;V178D

Variants of: B2
Settings: with ksr1_human KSR1, Q8IVT5

effect of a mutation on the interaction	Variant
decreasing interaction strength	K49E;R56E;V178D

Variants of: B3
Settings: with bmx_human BMX

effect of a mutation on the interaction	Variant
decreasing interaction strength	K49E;R56E;V178D

Variants of: B4
Settings: with mex3c_human MEX3C

effect of a mutation on the interaction	Variant
decreasing interaction strength	K49E;R56E;V178D

Variants of: B5
Settings: with prag1_human PRAG1, Q86YV5

effect of a mutation on the interaction	Variant
decreasing interaction strength	K49E;R56E;V178D
